According to patent US10000771B2, “Nuclear targeting sequences” (Yeda Research and Development Co. Ltd., priority 2007, dated 2018):

Target: T1, importin-7 (Homo sapiens, UniProt O95373)
T1 construct: endogenous in cells; host or cells: HeLa
Assay: Coimmunoprecipitation with importin-7
Assay type: binding
Conditions: HeLa cells, coimmunoprecipitation with anti GFP Ab, with or without stimulation
Method: FIGS. 19A-19C are autoradiographs illustrating that phospho-SPS interacts with importin-7 and releases Nup153c binding without involvment of importin-β. […]. Interaction of ERK2 with Importin-7 is enhanced by EGF stimulation and EPE mutation. HeLa cells overexpressing WT-ERK (WT), ERK-APA (APA), ERK-EPE (EPE) or GFP were serum starved and treated with EGF (50 ng/ml, 10 min). The extracts of the treated cells were then subjected to coimmunoprecipitation using A/G beads pre-conjugated with anti GFP Ab and mild washes. The coimmunoprecipitated importin-7 (first panel) and importin-β (third panel), as well as their loading amounts (panels 2 and 4 respectively) were determined by WB using anti importin-7 (αImp7) and importin-β (αImpβ) Abs. The equal amount of immunoprecipitated ERKs was determined with anti GFP (αGFP; IP) Ab. FIG. 19B. Interaction of 2GFP-SPS and its mutants with importin-7. HeLa cells overexpressing 2GFP, 2GFP-SPS, 2GFP-APA and 2GFP-EPE constructs were subjected to coimmunoprecipitation as described in FIG. 19A (without EGF stimulation). FIG. 19C. Interaction of NUP153 with WTERK2 and its APA and EPE mutants. NUP153c is elevated in APA-ERK2, but reduced in EPE-ERK2. Immunoprecipitated and stringently washed WT-ERK2 (WT), APA-ERK2 (APA) or ERK2 from […] cells pre-treated with or without TPA (250 nM, 15 min) were incubated with 0.5 μg recombinant His-Nup153c. […]

T1 sequence (O95373 whole entry): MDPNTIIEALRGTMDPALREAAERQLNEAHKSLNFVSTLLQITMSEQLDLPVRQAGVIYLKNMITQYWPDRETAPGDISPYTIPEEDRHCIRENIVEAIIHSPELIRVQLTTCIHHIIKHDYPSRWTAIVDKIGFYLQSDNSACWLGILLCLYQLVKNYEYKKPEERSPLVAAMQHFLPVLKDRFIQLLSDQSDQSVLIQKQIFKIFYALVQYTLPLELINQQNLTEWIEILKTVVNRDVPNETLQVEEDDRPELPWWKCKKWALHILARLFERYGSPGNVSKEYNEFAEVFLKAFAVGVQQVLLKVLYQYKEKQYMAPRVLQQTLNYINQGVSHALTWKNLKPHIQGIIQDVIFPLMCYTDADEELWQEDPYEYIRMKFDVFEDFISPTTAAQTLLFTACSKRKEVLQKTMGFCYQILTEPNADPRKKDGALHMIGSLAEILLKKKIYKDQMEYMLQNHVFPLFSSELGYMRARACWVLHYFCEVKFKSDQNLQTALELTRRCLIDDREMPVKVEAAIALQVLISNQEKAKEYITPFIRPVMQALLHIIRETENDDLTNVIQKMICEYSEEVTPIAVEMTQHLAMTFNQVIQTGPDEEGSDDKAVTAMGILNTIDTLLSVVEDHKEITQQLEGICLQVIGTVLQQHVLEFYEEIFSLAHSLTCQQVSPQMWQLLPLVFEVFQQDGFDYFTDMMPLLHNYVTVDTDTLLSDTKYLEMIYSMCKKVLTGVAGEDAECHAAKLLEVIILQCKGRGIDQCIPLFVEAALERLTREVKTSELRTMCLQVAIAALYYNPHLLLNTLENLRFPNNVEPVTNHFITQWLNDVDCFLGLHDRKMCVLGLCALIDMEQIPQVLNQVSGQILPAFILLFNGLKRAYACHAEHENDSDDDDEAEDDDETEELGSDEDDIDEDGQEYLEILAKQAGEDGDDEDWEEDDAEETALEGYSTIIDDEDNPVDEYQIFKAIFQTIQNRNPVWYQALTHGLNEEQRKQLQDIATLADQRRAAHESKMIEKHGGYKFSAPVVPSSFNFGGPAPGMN

interaction of ERK2 constructs with importin-7: reduced the interaction
B1: APA-ERK2: GFP-ERK2 with the two Ser residues of the SPS sequence replaced by Ala (protein)
chain: MAAAAAAGPEMVRGQVFDVGPRYTNLSYIGEGAYGMVCSAYDNLNKVRVAIKKISPFEHQTYCQRTLREIKILLRFRHENIIGINDIIRAPTIEQMKDVYIVQDLMETDLYKLLKTQHLSNDHICYFLYQILRGLKYIHSANVLHRDLKPSNLLLNTTCDLKICDFGLARVADPDHDHTGFLTEYVATRWYRAPEIMLNSKGYTKSIDIWSVGCILAEMLSNRPIFPGKHYLDQLNHILGILGAPAQEDLNCIINLKARNYLLSLPHKNKVPWNRLFPNADSKALDLLDKMLTFNPHKRIEVEQALAHPYLEQYYDPSDEPIAEAPFKFDMELDDLPKEKLKELIFEETARFQPGYRS
modifications: left off: large carriers
